Reference: paper PMC5557857 (2017)

Key:
[1] = biological target: epidermal growth factor receptor 2 (HER2) expressed on SKOV3 cells (human (endogenous in SKOV3)) (UniProt P04626); test: split reporter (BiFC, NanoBiT); TEC screen: HER2-expressing SKOV3 cells incubated 1 hr at ambient temperature with clarified lysates of one β9 fusion and one β10 fusion (PBS + 1% BSA), washed 3 times, luminescence 30 min after Δ11S lysate (1:20) and Nano-Glo substrate; signal-to-background, average of three days
β10 peptide (synthetic) = biological target: T1, β10 peptide (synthetic) (Oplophorus gracilirostris, Synthetic 11-mer. The sequence is only in Table S1, so the high-affinity NanoBiT peptide 86 (HiBiT-type) variant of strand 10 is assumed. Termini are not stated.); test: luminescence complementation, 10 uM Nano-Glo substrate
T1 chain: VSGWRLFKKIS

Molecule “9.29-β10 (DARPin 9.29 with β10 at the C-terminus) (designed binder)” has a TEC signal-to-background with PertH-β9 [1] of 346, a TEC signal-to-background with β9-G3 [1] of 122 and a TEC signal-to-background with β9-L73J [1] of 597. It also gave a TEC signal-to-background with β9-LPert [1] of 265.

Molecule “G3-β10 (DARPin G3 with β10 at the C-terminus) (designed binder)” has a TEC signal-to-background with PertH-β9 [1] of 103, a TEC signal-to-background with β9-L73J [1] of 1360 and a TEC signal-to-background with β9-LPert [1] of 353.

“G3-β9 (DARPin G3 with β9 at the C-terminus) (designed binder)” gave a TEC signal-to-background with PertH-β10 [1] of 122 and a TEC signal-to-background with β10-L73J [1] of 126.

“β9-9.29 (DARPin 9.29 with β9 at the N-terminus) (designed binder)” gave a TEC signal-to-background with PertH-β10 [1] of 671 and a TEC signal-to-background with β10-L73J [1] of 173.

In the case of “β9-G3 (DARPin G3 with β9 at the N-terminus) (designed binder)”, the TEC signal-to-background with 9.29-β10 [1] is reported as 122 and the TEC signal-to-background with 73JH-β10 [1] is reported as 219.

In the case of “β10-G3 (DARPin G3 with β10 at the N-terminus) (designed binder)”, the TEC signal-to-background with β9-L73J [1] is reported as 197.

B1: 11S (beta-strands 1-9 of NanoLuc, main fragment of NanoBiT) (domain or fragment)
chain: MVFTLEDFVGDWEQTAAYNLDQVLEQGGVSSLLQNLAVSVTPIQRIVRSGENALKIDIHVIIPYEGLSADQMAQIEEVFKVVYPVDDHHFKVILPYGTLVIDGVTPNMLNYFGRPYEGIAVFDGKKITVTGTLWNGNKIIDERLITPDGSMLFRVTINS
B1 showed a Kd (β10 peptide (synthetic)) of 4 nM.
